The labels stand for the following.
B1: JS001 (TAB001, toripalimab) (antibody, V domains shown)
VH: QGQLVQSGAEVKKPGASVKVSCKASGYTFTDYEMHWVRQAPIHGLEWIGVIESETGGTAYNQKFKGRVTITADKSTSTAYMELSSLRSEDTAVYYCAREGITTVATTYYWYFDVWGQGTTVTVSS
VL: DVVMTQSPLSLPVTLGQPASISCRSSQSIVHSNGNTYLEWYLQKPGQSPQLLIYKVSNRFSGVPDRFSGSGSGTDFTLKISRVEAEDVGVYYCFQGSHVPLTFGQGTKLEIK
B2: Antibody 28 PD-1 arm (antibody, V domains shown)
VH: B1 VH
VL: B1 VL
B3: Antibody 24 PD-1 arm (antibody, V domains shown)
VH: B1 VH
VL: B1 VL
B4: Antibody 23 PD-1 arm (antibody, V domains shown)
VH: B1 VH
VL: B1 VL
B5: Antibody 27 PD-1 arm (antibody, V domains shown)
VH: B1 VH
VL: B1 VL
B6: DotAb4 (designed binder)
chain: EVQLVESGGGLVQPGGSLRLSCAISGFSLAATDIDWVRQAPGKGLEWVARIFSPSDFTDYADSVKGRFTISADTSKNTVYLQMNSLRAEDTAVYYCGRPDTYAYNIFLDTPTYNALHYRGQGTLVTVSS

“And” between values parts separate entries of the source, which are not always exact repeats. Identical values can stand only once.

One experiment concerns the target T1, human VEGFA (human, UniProt P15692).
T1 chain: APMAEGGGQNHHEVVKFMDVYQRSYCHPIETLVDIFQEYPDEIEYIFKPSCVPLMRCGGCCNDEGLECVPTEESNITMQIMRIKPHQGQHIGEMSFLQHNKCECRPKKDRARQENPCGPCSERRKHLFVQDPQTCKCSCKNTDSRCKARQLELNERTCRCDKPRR
Description: SPR. (SPR reads the build-up and loss of mass on a sensor chip optically.)
For the molecule B1, the binding result was “no binding”.

The next experiment has as its target T2, human PD-1 (human, UniProt Q15116). Description: BLI. In general terms: BLI is a label-free optical method that tracks binding on a fibre tip over time.
Usually Kd stands for the equilibrium constant for the complex coming apart. A higher Kd goes with a looser complex. For B2, the equilibrium dissociation constant (Kd) worked out at 1.67 nM.
As to B3, the affinity, expressed as Kd, was 1.21 nM.
Still for that read-out and setting: to B4 belongs 1.73 nM; to B5, 0.864 nM.
The same measure, in the same setting: under B1 stands 0.584 nM.

The target of a further experiment is T1, human VEGFA. Description: BLI.
B6 yielded a Kd below 0.0266 nM.

The next experiment deals with T2, human PD-1. The experiment in a line: ELISA.
For orientation: EC50 means the concentration giving half of the maximal effect. B2 showed an EC50 of 59.5 nM.
Still for that read-out and setting: to B3 belongs 14.6 nM; to B4, 6.93 nM.
Molecule B5 came in with an EC50 of 23.8 nM.

A further experiment addresses T2, human PD-1. The experiment in a line: competition ELISA, PD-L1 blocking.
A word on the IC50: it is the concentration at which inhibition is half-maximal. High values mean lower potency, low ones higher potency. Consider B2, for which the half-inhibitory concentration (IC50) came to 573 nM. This counts as sub-micromolar.
In the case of B3, the IC50 is 243 nM.
B4 gave an IC50 of 293 nM.
On the same count and under the same terms, under B5 stands 297 nM; under B1, 255 nM and 135 nM.

Source of the values: US20260365731 (published 2026).
